Among the data in patent US20150064134A1 are % activity values, retold here.

Among the targets are BTK(R28H)(h) (human) (UniProt Q06187); SAPK2a(T106M)(h) (human) (UniProt Q16539); cKit(h) (human) (UniProt P10721); MuSK(h) (human) (UniProt O15146); PKBα(h) (human) (UniProt P31749); Met(D1246H)(h) (human) (UniProt P08581); ZIPK(h) (human) (UniProt O43293); DAPK2(h) (human) (UniProt Q9UIK4); PKG1α(h) (human) (UniProt Q13976); CHK2(h) (human) (UniProt O96017); STK33(h) (human) (UniProt Q9BYT3); NEK6(h) (human) (UniProt Q9HC98); TrkA(h) (human) (UniProt P04629).

What all share (test): cell-based or functional assay
For the next assay, the target named is T1, Tec(h) activated (human) (UniProt P42680).
T1 sequence (looked up): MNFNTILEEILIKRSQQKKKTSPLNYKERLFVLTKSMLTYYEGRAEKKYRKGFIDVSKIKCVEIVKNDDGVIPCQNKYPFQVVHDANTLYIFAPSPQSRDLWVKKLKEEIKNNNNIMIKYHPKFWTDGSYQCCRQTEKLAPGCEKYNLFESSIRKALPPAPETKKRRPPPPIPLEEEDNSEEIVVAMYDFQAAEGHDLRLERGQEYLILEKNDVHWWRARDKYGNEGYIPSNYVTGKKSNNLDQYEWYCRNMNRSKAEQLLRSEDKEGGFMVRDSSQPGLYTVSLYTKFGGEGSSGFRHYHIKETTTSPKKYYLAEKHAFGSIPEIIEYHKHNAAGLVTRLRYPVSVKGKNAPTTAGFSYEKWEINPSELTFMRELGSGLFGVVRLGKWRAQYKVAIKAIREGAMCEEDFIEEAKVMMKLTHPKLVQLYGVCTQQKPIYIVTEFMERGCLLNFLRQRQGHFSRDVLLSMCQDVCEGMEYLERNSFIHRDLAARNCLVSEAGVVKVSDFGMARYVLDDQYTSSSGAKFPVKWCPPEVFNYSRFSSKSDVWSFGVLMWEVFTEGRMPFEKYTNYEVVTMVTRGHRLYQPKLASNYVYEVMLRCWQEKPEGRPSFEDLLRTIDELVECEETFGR

In assay [1] the target is EGFR(T790M,L858R)(h) (human) (UniProt P00533).
The target of another assay is T2, Flt3(D835Y)(h) (human) (UniProt P36888).
T2 sequence (looked up): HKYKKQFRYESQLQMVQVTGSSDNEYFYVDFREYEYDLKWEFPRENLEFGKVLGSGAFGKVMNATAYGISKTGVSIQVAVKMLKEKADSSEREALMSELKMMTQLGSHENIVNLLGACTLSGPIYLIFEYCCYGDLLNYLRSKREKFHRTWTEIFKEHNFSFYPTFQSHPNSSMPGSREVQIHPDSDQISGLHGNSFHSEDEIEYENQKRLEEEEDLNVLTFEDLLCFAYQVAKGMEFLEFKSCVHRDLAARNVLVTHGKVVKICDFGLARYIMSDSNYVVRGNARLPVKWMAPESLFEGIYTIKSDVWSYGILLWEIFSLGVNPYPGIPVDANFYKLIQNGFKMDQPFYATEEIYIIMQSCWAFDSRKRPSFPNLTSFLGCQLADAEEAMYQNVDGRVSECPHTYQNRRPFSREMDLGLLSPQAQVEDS

The next assay addresses T3, TAO1(h) (human) (UniProt Q7L7X3).
T3 sequence (looked up): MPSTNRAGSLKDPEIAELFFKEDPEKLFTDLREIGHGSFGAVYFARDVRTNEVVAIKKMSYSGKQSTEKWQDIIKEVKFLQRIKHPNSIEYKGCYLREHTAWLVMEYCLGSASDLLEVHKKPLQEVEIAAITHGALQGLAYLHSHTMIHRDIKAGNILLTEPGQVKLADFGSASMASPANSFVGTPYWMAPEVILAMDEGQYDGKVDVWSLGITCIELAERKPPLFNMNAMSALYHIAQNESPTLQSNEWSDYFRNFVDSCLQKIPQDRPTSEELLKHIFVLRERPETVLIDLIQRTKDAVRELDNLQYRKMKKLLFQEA

Another assay addresses T4, TSSK2(h) (human) (UniProt Q96PF2).
T4 sequence (looked up): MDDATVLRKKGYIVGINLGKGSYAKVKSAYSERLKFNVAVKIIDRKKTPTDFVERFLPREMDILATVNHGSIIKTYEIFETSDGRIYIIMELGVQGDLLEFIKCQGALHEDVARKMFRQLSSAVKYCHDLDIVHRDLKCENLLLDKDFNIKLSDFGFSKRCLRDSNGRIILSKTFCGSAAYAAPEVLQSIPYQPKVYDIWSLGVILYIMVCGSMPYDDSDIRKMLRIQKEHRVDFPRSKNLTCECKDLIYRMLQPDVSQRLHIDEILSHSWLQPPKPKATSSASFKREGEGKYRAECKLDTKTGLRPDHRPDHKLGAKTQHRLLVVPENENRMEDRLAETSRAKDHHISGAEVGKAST

The target in another assay is T5, Mer(h) (human) (UniProt Q12866).
T5 sequence (looked up): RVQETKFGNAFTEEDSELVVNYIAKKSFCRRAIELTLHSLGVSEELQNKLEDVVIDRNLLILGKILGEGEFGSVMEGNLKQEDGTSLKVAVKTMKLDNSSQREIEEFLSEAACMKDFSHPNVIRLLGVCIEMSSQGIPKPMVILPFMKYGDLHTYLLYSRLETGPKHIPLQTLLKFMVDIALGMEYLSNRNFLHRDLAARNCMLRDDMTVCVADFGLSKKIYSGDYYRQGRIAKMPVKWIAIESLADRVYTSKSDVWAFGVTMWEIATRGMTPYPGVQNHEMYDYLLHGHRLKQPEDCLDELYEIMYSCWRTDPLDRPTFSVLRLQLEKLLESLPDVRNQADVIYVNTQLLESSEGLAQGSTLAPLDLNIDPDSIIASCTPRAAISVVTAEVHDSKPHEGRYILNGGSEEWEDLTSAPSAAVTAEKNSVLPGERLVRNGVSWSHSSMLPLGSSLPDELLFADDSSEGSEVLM

Chain of cKit(h) (human) (P10721 544-976): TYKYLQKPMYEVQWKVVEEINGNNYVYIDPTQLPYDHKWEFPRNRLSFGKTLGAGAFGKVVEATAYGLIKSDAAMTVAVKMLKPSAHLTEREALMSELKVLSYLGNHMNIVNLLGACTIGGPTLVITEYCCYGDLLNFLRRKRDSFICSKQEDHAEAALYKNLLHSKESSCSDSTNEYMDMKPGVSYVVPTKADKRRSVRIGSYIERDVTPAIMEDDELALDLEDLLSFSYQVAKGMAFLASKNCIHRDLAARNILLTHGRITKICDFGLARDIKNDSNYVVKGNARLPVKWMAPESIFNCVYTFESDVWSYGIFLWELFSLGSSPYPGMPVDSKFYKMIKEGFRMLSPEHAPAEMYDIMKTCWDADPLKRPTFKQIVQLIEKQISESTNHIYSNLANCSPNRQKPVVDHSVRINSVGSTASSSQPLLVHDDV
Chain of PKBα(h) (human) (P31749 whole entry): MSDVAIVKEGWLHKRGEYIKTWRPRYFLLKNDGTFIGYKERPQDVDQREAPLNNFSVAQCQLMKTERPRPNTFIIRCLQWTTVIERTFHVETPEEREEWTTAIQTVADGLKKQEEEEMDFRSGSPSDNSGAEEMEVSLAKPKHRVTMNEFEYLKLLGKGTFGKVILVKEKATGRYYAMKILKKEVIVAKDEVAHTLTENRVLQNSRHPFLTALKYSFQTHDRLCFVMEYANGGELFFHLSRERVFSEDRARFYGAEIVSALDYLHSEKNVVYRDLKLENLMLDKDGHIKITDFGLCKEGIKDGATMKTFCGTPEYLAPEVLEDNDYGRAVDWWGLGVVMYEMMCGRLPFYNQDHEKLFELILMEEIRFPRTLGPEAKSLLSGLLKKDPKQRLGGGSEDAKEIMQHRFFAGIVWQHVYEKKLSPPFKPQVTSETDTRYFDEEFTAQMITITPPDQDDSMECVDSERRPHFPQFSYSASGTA
Chain of SAPK2a(T106M)(h) (human) (Q16539 whole entry T106M): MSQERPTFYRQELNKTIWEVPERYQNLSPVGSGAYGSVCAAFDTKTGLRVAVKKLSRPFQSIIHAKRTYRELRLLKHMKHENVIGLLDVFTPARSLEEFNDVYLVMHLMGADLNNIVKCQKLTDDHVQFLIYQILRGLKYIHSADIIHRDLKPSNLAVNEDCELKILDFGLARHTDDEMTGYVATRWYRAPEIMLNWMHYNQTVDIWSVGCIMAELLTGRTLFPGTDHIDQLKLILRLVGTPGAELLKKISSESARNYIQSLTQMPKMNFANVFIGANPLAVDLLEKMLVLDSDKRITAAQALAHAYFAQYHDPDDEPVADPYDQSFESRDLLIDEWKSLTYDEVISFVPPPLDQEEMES
Chain of CHK2(h) (human) (O96017 5-543 limits assumed): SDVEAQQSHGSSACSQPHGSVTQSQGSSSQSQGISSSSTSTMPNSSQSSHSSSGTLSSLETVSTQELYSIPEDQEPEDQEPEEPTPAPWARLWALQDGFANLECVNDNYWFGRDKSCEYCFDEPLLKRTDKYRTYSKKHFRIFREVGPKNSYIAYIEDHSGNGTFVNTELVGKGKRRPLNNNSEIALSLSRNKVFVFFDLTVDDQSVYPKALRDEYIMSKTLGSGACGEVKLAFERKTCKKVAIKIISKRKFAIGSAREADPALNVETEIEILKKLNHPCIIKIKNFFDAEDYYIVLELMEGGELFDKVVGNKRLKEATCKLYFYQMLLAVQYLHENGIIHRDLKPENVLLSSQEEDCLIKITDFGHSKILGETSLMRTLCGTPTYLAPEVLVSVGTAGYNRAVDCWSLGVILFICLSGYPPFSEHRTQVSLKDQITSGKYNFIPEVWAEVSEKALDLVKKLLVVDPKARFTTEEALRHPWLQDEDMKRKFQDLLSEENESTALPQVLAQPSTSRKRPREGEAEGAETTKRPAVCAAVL

For the substance MMI-0500 (peptide), the % activity at 100 µM worked out at 10% with BTK(R28H)(h) (human); 32% in the assay with SAPK2a(T106M)(h) (human); 45% in the assay with cKit(h) (human); 33% with Tec(h) activated (human); 27% with MuSK(h) (human); 53% in [1]. In addition, the % activity at 100 µM with PKBα(h) (human) amounted to 30%; with Met(D1246H)(h) (human), 150%; with ZIPK(h) (human) it was 1%; in the assay with Flt3(D835Y)(h) (human), 65%; in the assay with DAPK2(h) (human), 3%; in the assay with PKG1α(h) (human), 25%. Further, the % activity at 100 µM is 24% with TAO1(h) (human); 13% with CHK2(h) (human); 16% with STK33(h) (human); 92% in the assay with TSSK2(h) (human); 17% with Mer(h) (human); 49% with NEK6(h) (human). The % activity at 100 µM with TrkA(h) (human) came to 24%.

As for MMI-0300 (peptide), the % activity at 100 µM came out at 74% with BTK(R28H)(h) (human); 97% in the assay with SAPK2a(T106M)(h) (human); 53% in the assay with cKit(h) (human); 56% in the assay with Tec(h) activated (human); 93% with MuSK(h) (human); 85% in [1]. Also, the % activity at 100 µM was found to be 57% in the assay with PKBα(h) (human); 125% in the assay with Met(D1246H)(h) (human); 28% with ZIPK(h) (human); 80% in the assay with Flt3(D835Y)(h) (human); 32% with DAPK2(h) (human); 64% with PKG1α(h) (human). The % activity at 100 µM was 82% in the assay with TAO1(h) (human); 66% in the assay with CHK2(h) (human); 45% in the assay with STK33(h) (human); 98% with TSSK2(h) (human); 52% in the assay with Mer(h) (human); 82% with NEK6(h) (human). Also, the % activity at 100 µM in the assay with TrkA(h) (human) was found to be 25%.

Regarding MMI-0400 (peptide), the % activity at 100 µM with BTK(R28H)(h) (human) was found to be 24%; in the assay with SAPK2a(T106M)(h) (human) it was 99%; with cKit(h) (human), 43%; in the assay with Tec(h) activated (human), 29%; with MuSK(h) (human), 93%; in assay [1] it was 78%. For the same substance, the % activity at 100 µM was 67% in the assay with PKBα(h) (human); 68% in the assay with Met(D1246H)(h) (human); 13% with ZIPK(h) (human); 71% in the assay with Flt3(D835Y)(h) (human); 16% with DAPK2(h) (human); 58% in the assay with PKG1α(h) (human). The % activity at 100 µM with TAO1(h) (human) stood at 73%; with CHK2(h) (human), 54%; in the assay with STK33(h) (human), 52%; with TSSK2(h) (human), 94%; with Mer(h) (human), 50%; with NEK6(h) (human) it was 85%. Besides, the % activity at 100 µM with TrkA(h) (human) is 17%.
